B1: pegylated variant E: Variant E modified by chemical attachment of 20 kDa poly(ethyleneglycol) (conjugate)
chain: IVGGYDCEENSVPYHVSLNSGSNSTTICGGALINEQWVVTAGHCYAFFPADKSRIQVRLGVHSTGALEGNEQIINAAKIIRHPQYDWKTLNNDIMLIKLSSPAVINAHVSTISLPTAPPATGTKCLISGWGNSKDPYKPSSRADYPGEVQCLDAPVLSQTKCEASYPGKITSNMFCAGFLEGGKDSCQGDSGGPVVHNGQLQGVVSWGEGCAQKNKPGVYTNVYNYVEWIQDTIAANS
B2: pegylated variant G: variant G pegylated with 20 kD methoxy-poly(ethyleneglycol) derivative on lysine residues (conjugate)
chain: IVGGYDCEENSVPYHVSLNSDSNSTTICGGALINEQWVVTAGHCYSFLPLDKSRIQVRLGVHSTGALEGNEQIINAAKIIRHPQYDWKTLNNDIMLIKLSSPAVINAHVSTISLPTAPPATGTKCLISGWGNSKDPYKPSSGPSTADYPGEVQCLDAPVLSQTKCEASYPGKITSNMFCAGFLEGGKDSCQGDSGGPVVHNGQLQGVVSWGEGCAQKNKPGVYTNVYNYVEWIQDTIAANS

Legend:
hTNFα = hTNFα (Homo sapiens, UniProt P01375); assay: TNF-alpha dependent cell-based caspase assay (Caspase-Glo 3/7) on WEHI 13VAR cells; set-up: species or system mouse; conditions: 20 kDa PEG, protease 50 and 100 µg/ml, hTNFα 1 ng/ml, 4 h, 37 °C
Sequence of hTNFα (P01375 77-233 limits assumed): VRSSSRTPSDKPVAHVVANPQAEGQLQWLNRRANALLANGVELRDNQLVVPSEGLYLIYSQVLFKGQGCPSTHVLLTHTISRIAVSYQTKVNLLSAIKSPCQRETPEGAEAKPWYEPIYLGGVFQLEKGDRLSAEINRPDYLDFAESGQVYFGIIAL
Description: (§1) • Figure 1: Mass spectrometric verification of the proteolytic cleavage site of TNF-alpha. TNF-alpha was digested at a concentration of 1 mg/ml with protease variant E for 1 h at 37 °C in PBS buffer. The short fragment of the cleavage reaction was isolated on a C18-reversed phase HPLC-column and the collected fraction electrosprayed into the orifice of the ion-trap mass spectrometer. • Figure 2: Deconvoluted mass spectrometric analysis. The small cleavage product has been isolated and the determined mass represents the first 32 amino acids of SEQ ID NO: 11, confirming the targeted cleavage site. • Figure 3: Inactivation of recombinant human TNF-alpha activity by a panel of variants in a cell-based caspase assay. […] Detection of hTNFα-induced caspase activation was measured by a luminescence based read-out. […] (A) depicts maximal detected inactivation of hTNFα; (B) depicts dose dependency of the effects of the hTNFα specific protease. • Figure 4: Effect of pegylation on activity. […] The activity of the resulting pegylated protease was assessed against a recombinant hTNFα (A) or by a caspase assay that measures levels of remaining TNF-alpha activity following digestion of the cytokine by the protease (B). […] Cleavage is assessed by following the changes in the fluorescent signal. […] Efficacy was determined by using a standard clinical scoring system for ankle joint inflammation. […]

synthetic peptide = assay: Activity assay of pegylated versus non-pegylated protease against a synthetic peptide (Fig. 4A); assay type: biochemical; conditions: 20 kDa PEG; synthetic peptide / recombinant hTNFα
Description: as §1

[1] = test system: human TNF-alpha transgenic mouse model of arthritis; assay: Efficacy in human TNF-alpha transgenic mouse model of arthritis (Tg197); assay type: in vivo; conditions: Tg197 mice, six weeks old, established disease; 50 mg/kg intraperitoneally three times per week for five weeks
Description: as §1

transmembrane TNF-alpha = target: T1, transmembrane TNF-alpha (Homo sapiens, UniProt P01375, DEL77-88); assay: Membrane-bound TNF-alpha assay: cell line expressing non-cleavable TNF plus reporter cells, apoptosis read-out; assay type: cell-based; conditions: incubation at different concentrations for 4 h, then reporter cell line added
T1 construct: The transmembrane TNF induces apoptosis in these TNF-susceptible cells; expressed in transfected cells
T1 sequence (P01375 with tags, fused parts or gaps DEL77-88): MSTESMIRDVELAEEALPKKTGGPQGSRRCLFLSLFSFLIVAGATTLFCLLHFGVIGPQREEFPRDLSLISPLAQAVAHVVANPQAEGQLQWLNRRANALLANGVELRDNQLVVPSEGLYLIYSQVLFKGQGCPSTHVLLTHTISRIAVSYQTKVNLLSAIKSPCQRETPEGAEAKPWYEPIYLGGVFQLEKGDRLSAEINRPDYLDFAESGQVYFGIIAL

Molecule | remaining TNF-alpha activity after digestion, pegylated compared with non-pegylated variant (Fig. 4B) (hTNFα) | activity of pegylated protease compared with non-pegylated variant (Fig. 4A) (synthetic peptide) | clinical score for ankle joint inflammation (arthritis score 0 to 3) [1] | inactivation of transmembrane TNF-alpha (inhibition of apoptosis of reporter cells) (transmembrane TNF-alpha)
B1 | slight reduction in specific activity | slight reduction in specific activity | Efficacy of pegylated TNF-alpha specific protease variant E is demonstrated | 
B2 |  |  |  | do not inhibit apoptosis

— patent EP1847600A1, “Specific protease for inactivation of human tumour necrosis factor-alpha” (Direvo Biotech AG, priority 2006, dated 2007)
